Laboratory results reported in patent US7514408 (ELAN PHARMACEUTICALS, dated 2009).
Numbered stars: 1 amine (or outer) side, 2 acyl side, 3 side chain; on linkers, the order of the positions; unused ones are H or OH. Square brackets hold non-standard residues; d marks the D form. Ends that are not written are not given here. Ahppa(3S,4S) = O=C(C[C@H](O)[C@H](Cc1ccccc1)N[*:1])[*:2]; ACHPA = O=C(C[C@H](O)[C@H](CC1CCCCC1)N[*:1])[*:2]; Sta = CC(C)C[C@H](N)[C@@H](O)CC(=O)O; Phg = N[C@H](C(=O)O)c1ccccc1; Nle = CCCC[C@H](N)C(=O)O; norSta = nor-statine

Target: T1, β-secretase (enzyme preparation not stated for the inhibitor assays) (human, UniProt P56817 46-501, limits assumed)
T1 sequence (P56817 46-501 limits assumed): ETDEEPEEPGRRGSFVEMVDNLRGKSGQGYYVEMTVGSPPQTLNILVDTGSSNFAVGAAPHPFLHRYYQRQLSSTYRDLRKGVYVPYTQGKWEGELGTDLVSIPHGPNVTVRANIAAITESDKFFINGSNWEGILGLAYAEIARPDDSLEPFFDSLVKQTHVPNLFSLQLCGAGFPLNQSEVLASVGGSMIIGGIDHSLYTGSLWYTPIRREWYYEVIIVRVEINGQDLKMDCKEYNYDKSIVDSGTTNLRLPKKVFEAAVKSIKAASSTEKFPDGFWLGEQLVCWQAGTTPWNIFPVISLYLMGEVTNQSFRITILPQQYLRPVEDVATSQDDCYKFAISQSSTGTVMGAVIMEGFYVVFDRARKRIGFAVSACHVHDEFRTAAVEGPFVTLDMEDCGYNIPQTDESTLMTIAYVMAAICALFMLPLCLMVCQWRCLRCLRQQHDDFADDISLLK
Test: cell-based or functional assay

inhibitor potency relative to the valine substitution alone	Binder
~100 times	KTEEISEVN[Sta]VAEF [P10-P4′staD→V]

Target: T1, β-secretase (enzyme preparation not …)
Test: cell-based or functional assay
Remark: another data set of the same source

Binder	IC50 Group, MBP C125 assay (Group I: IC50 of <µm [sic])	IC50 Group, MBP C125 assay (Group II: =1<10 µM)
Ac-V[Phg][Sta]VAEF [heptamer peptide 7G (Ac-Val-Phg-Sta-Val-Ala-Glu-Phe)]	< 1 µM	–
Ac-V[Nle][Sta]VAEF [heptamer peptide 7H (Ac-Val-nLeu-Sta-Val-Ala-Glu-Phe)]	< 1 µM	–
Ac-VM[Sta]VAEF [heptamer peptide 7B (Ac-Val-Met-Sta-Val-Ala-Glu-Phe)]	< 1 µM	–

Continued, values first:

IC50 Group, MBP C125 assay (Group I: IC50 of <µm [sic])	IC50 Group, MBP C125 assay (Group II: =1<10 µM)	Binder
–	< 10 µM	Ac-VN[Sta]VAEF [heptamer peptide 7I (Ac-Val-Asn-Sta-Val-Ala-Glu-Phe)]
< 1 µM	–	Ac-VM[Ahppa(3S,4S)]VAEF [heptamer peptide 7O (Ac-Val-Met-pheSta-Val-Ala-Glu-Phe)]
–	< 10 µM	H-VM[ACHPA]VAEF [heptamer peptide 7Q ((NH2)Val-Met-acha-Val-Ala-Glu-Phe)]
–	< 10 µM	Ac-VM[norSta]VAEF [heptamer peptide 7P (Ac-Val-Met-norSta-Val-Ala-Glu-Phe)]
–	< 10 µM	Ac-VF[Sta]VAEF [heptamer peptide 7J (Ac-Val-Phe-Sta-Val-Ala-Glu-Phe)]
